This note sets out measurements from FireProtDB (doi:10.1016/0167-4838(93)90045-s).

For this series the following is noted: Carica papaya, Thermal, DSC, glycine 0.05M, reversible: No.

Chymopapain wild type, P14080, sequence (P14080 whole entry): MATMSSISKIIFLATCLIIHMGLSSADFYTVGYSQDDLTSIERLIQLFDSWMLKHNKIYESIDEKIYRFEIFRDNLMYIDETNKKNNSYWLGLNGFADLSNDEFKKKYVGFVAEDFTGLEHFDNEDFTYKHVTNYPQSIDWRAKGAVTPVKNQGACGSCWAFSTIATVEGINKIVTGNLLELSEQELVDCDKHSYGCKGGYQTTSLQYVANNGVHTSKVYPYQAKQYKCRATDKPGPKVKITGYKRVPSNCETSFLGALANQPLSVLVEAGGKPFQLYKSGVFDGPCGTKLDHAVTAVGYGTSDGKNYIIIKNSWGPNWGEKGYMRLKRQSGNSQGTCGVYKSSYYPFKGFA

For the substance Chymopapain wild type, P14080, the Tm (in general, the temperature at which the thermal transition is half complete) stood at 43 °C (pH 1.2); 56.9 °C (pH 1.91); 62 °C (pH 2.2); 67.9 °C (pH 2.35); 75.2 °C (pH 2.56); 81.1 °C (pH 3.18). The Tm (pH 3.45) worked out at 83.7 °C. In addition, the “unfolding enthalpy (calorimetric)” value by setting is: (pH 1.2) 105 kcal/mol; (pH 1.91) 138 kcal/mol; (pH 2.2) 144 kcal/mol; (pH 2.35) 161 kcal/mol; (pH 2.56) 174 kcal/mol; (pH 3.18) 193 kcal/mol. Further, where the note is “pH 3.45”, the “unfolding enthalpy (calorimetric)” value came to 199 kcal/mol.
